Source: the supplement of paper PMC10567573
± gives the standard deviation.

Experiment: protein stability index of a GFP-peptide fusion (GPS, HEK-293T) (PSI 1-6); higher = more stable
[1] = treatment: DMSO, c terminus: a fixed tail appended
[2] = treatment: MLN4924 1 uM, 8 h, c terminus: a fixed tail appended
[3] = treatment: DMSO, c terminus: native
[4] = treatment: MLN4924 1 uM, 8 h, c terminus: native
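Also: 24-mer peptide tiles fused after GFP, lentivirally expressed, FACS-sorted into six equal bins by GFP/DsRed ratio, decoded by Illumina sequencing, PSI is the read-weighted mean bin number.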

| Sequence | protein stability index [1] | protein stability index [2] | protein stability index [3] | protein stability index [4] |
| --- | --- | --- | --- | --- |
| PDKKKRPRRSLSISKNKKKASNSI [FAN1] | 4.56 ± 0.2 | 4.76 ± 0.068 |  |  |
| FKGNKYWAVQGQNVLHGYPKDIYS [MMP1] | 2.3 ± 0.21 | 2.46 ± 0.2 |  |  |
| GDDFELLDQSELSQLDPASSRSH [RETREG3] |  |  | 4.75 ± 0.29 | 4.85 ± 0.4 |
| VFVLIDEVESLTAARNACRAGTEP [TRIP13] | 2.35 ± 0.2 | 2.63 ± 0.36 |  |  |
| VKKKKEEGVIDSSDKEIVAEAERL [EIF5] | 5.04 ± 0.59 | 5.46 ± 0.2 |  |  |
| EERVALNTEIEKLGRSIVSSPQGK [PKD2L1] | 5.06 ± 0.16 | 5.15 ± 0.32 |  |  |
| MCLSPDRKMEVEELSPLALGRFSL [CDC25B] | 2.57 ± 0.19 | 2.71 ± 0.24 |  |  |
| LAVLGADERIFSLTRRLAHGEELR [HAGHL] | 2.82 ± 0.23 | 2.81 ± 0.38 |  |  |
| TWVPMFLSTLLAPYQALRLWARGT [SOAT2] | 2.81 ± 0.48 | 2.72 ± 0.64 |  |  |
| GKETLTPSELRDLVTQQLPHLMPS [S100A14] | 3.94 ± 0.65 | 3.99 ± 0.12 |  |  |
| SPESSRGQCGENLAWASYDQTGKE [GLIPR2] | 4.8 ± 0.21 | 4.73 ± 0.27 |  |  |
| EEEEGEEEELIRIFQEQQKKWQQY [FAM9B] | 4.02 ± 0.23 | 4.13 ± 0.28 |  |  |
| DSSFPPALAEGYRYPELDTPKLDC [TBX6] | 4.7 ± 0.25 | 4.72 ± 0.17 |  |  |
| ERVWALAQEKAADVQARLNRSDHG [FCHSD1] | 4.23 ± 0.13 | 4.23 ± 0.24 |  |  |
| RRTLQGLEIELQSQLSMKAGLENT [KRT13] | 3.4 ± 0.24 | 3.34 ± 0.37 |  |  |
| ACGLSDVAHVESLQEKSQCALEEY [NR2F2] | 4.58 ± 0.28 | 4.67 ± 0.3 |  |  |
| TYRSLLESEDCKLPSNPCATTNAC [KRT33B] | 3.99 ± 0.26 | 4.04 ± 0.072 |  |  |
| PNEAMVVSGFCRSPPVMVAGGRVF [FLOT1] | 2.2 ± 0.2 | 2.42 ± 0.26 |  |  |
| SRRDDLEALGHMFMYFLRGSLPWQ [CSNK1G1] | 3.48 ± 0.54 | 3.15 ± 0.86 |  |  |
| CDVWSIGCILFEYYRGFTLFQTHE [CLK3] | 3.1 ± 0.48 | 3.25 ± 0.44 |  |  |
| NWLGRPSKVLSLQDLCCRTIVSCT [RAB40A] | 2.74 ± 0.08 | 2.88 ± 0.44 |  |  |
| CLIQKAQWTVGKLNCPFCGARLGG [RNF180] | 2.15 ± 0.18 | 2.79 ± 0.36 |  |  |

| Sequence | protein stability index [1] | protein stability index [2] | protein stability index [3] | protein stability index [4] |
| --- | --- | --- | --- | --- |
| ASIPEHLAYGSVITVKNLRMAIGY [POMT2] | 2.41 ± 0.29 | 2.43 ± 0.33 |  |  |
| LSTADGKAFADPEVLRRLTSSVSC [ANKRD17] | 3.55 ± 0.17 | 3.69 ± 0.29 |  |  |
| VRANDINYQDQIPRTLEEFVGFH [FEM1B] |  |  | 3.21 ± 0.16 | 3.2 ± 0.48 |
| RAPHKESTLPRSGSSGGQQPSGMK [CHCHD6] | 4.96 ± 0.58 | 5.05 ± 0.46 |  |  |
| RDYVRLFGIKCAKCQVGFSSSDLV [ISL2] | 2.51 ± 0.52 | 2.25 ± 0.23 |  |  |
| ELNHGRQGENQEHLVIAEMMELGS [FATE1] | 4.3 ± 0.29 | 4.27 ± 0.36 |  |  |
| VKLPLPAERVTLADFKGVLQRPSY [DVL3] | 2.5 ± 0.19 | 2.73 ± 0.36 |  |  |
| KSPEMPVILEVSLEGSHDTANCEA [RTP4] | 4.85 ± 0.11 | 5.07 ± 0.34 |  |  |
| ELQSQLSMKASLEGNLAETENRYC [KRT17] | 3.93 ± 0.25 | 4.18 ± 0.14 |  |  |
| YEAGVLAFYDVTGGMSHLHTFRAT [TRIM14] | 2.47 ± 0.45 | 2.07 ± 0.45 |  |  |
| STLEESVVRICCIRSFGHFIARLQ [SMG5] | 2.29 ± 0.04 | 2.19 ± 0.37 |  |  |
| RRHTSMERYDPNIDQWSMLGDMQT [KLHL12] | 3.86 ± 0.27 | 3.82 ± 0.26 |  |  |
| EKMTILQTYFRQNRDEVLDNLLAF [ATP6V1G1] | 2.7 ± 0.46 | 2.632 ± 0.015 |  |  |
| VSTVSHADADCFVCVFLSHGEGNH [CASP6] | 2.37 ± 0.2 | 2.18 ± 0.17 |  |  |
| KLYTGPGLAIHCMQVHKETIDAVP [ZNF207] | 2.5 ± 0.36 | 2.61 ± 0.3 |  |  |
| EVLGPLCLMLLMGTVHCQIVSTQI [PHTF1] | 3.27 ± 0.15 | 3.19 ± 0.2 |  |  |
| YKFDPKTKRILTLQKANSWFNCRK [MMP1] | 2.67 ± 0.27 | 2.54 ± 0.28 |  |  |
| QPVDAIKLNLPDYHKIIKNPMDMG [BRD3] | 3.12 ± 0.35 | 2.92 ± 0.23 |  |  |
| RAYDLLRAASENSQDALRVVSTSG [IKZF1] | 2.62 ± 0.37 | 2.84 ± 0.31 |  |  |
| YSKESIIFGASSVDFSLSGRLLFA [GNB5] | 2.84 ± 0.74 | 2.78 ± 0.68 |  |  |
| KLLMADQDSPLDLTVRKSQSEPSE [LCOR] | 4.82 ± 0.28 | 4.921 ± 0.036 |  |  |
| TLCKADLEAQVESLKEELMCLKKN [KRT36] | 3.51 ± 0.4 | 3.83 ± 0.15 |  |  |

| Sequence | protein stability index [1] | protein stability index [2] | protein stability index [3] | protein stability index [4] |
| --- | --- | --- | --- | --- |
| EATHEPAAARIRAQVPDTRWSRVG | 4.62 ± 0.31 | 4.05 ± 0.41 |  |  |
| EKALASILLQDHIRDLDVVVVSVA [ATL3] | 2.52 ± 0.65 | 2.21 ± 0.53 |  |  |
| ATCRLCGEQVGRGPGFHAGTSALW [ZBED3] | 2.2 ± 0.57 | 2.39 ± 0.12 |  |  |
| LWCANILGYAVSTFAMVKGYFFPT [DHCR7] | 4.05 ± 0.23 | 3.83 ± 0.12 |  |  |
| PHRVLETRGHAISILFGFWTSFIC [SMIM2] | 2.46 ± 0.41 | 2.32 ± 0.18 |  |  |
| VVENAEKILGYLNTNVLSRDLIPP [SLC6A17] | 2.82 ± 0.15 | 2.84 ± 0.38 |  |  |
| PRRCHSAPPQGSCGDELPWTLQRR [PLEKHN1] | 4.79 ± 0.15 | 4.7 ± 0.23 |  |  |
| TVERPFYDLWASDNPLDRPLVGQD [NOP53] | 4.09 ± 0.37 | 4.2 ± 0.15 |  |  |
| PILQEGMDEEKLKQLNCVEISALN [DLC1] | 5.08 ± 0.15 | 4.87 ± 0.15 |  |  |
| RRVLPCIPSEEWPNPPTLQEAGLS [FAF2] | 3.9 ± 0.38 | 3.79 ± 0.18 |  |  |
| ECVASNNVGEISVSTRLTVLREDQ [PTPRD] | 4.63 ± 0.19 | 4.54 ± 0.15 |  |  |
| DGENLKNEEETPSCMASLWTAPLV [CDC25A] | 4.484 ± 0.031 | 4.5 ± 0.19 |  |  |
| QSSCSGPTHTPRPADFSLGSLPGP [VENTX] | 3.83 ± 0.13 | 3.89 ± 0.36 |  |  |
| PRPRPVSLSLRLPHQPVTAITRVS [SMTNL2] | 3.42 ± 0.24 | 3.58 ± 0.27 |  |  |
| DQDPSVLYFSIHRYEQGRFWPHLK [HDAC6] | 2.25 ± 0.41 | 2.16 ± 0.28 |  |  |
| EKLTKITRTGPSAWETKKILAVSF [PCMTD2] | 2.57 ± 0.57 | 2.37 ± 0.66 |  |  |
| RDHVETELLKEAELIRNIQELLKR [TEKT4] | 2.74 ± 0.16 | 3.01 ± 0.36 |  |  |
| VSITLLALVYLPGVIAAIVQLHNG [STEAP1] | 3.5 ± 0.33 | 3.11 ± 0.14 |  |  |
| GCQLDLRYADLEAVNRARRPLARP [RHOBTB1] | 3.07 ± 0.12 | 3.16 ± 0.28 |  |  |
| PSPEPAGRRAALYVHWPYCEKRCS [RSAD1] | 2.78 ± 0.26 | 3.02 ± 0.41 |  |  |
| LWIKFFAAGELESMGFSARYNFTP [NETO1] | 2.63 ± 0.85 | 2.58 ± 0.89 |  |  |
